Assay results published in patent US20250326865A1, “C-MET PROTEIN-BINDING PEPTIDE COMPLEX” (PeptiDream Inc., priority 2021, published 2025).
Starred links: 1 amine or outer side, 2 acyl side, 3 side chain; linkers in the order of their positions; H or OH if unused. Positions of bridges follow the written chain, without caps; N, C: chain ends. Non-standard residues stand in square brackets, D forms with d. Residues, ends and D or L forms follow the SMILES beside them. Primed or numbered codes have the meaning given here. Chains are numbered I, II in the order given. No end group written: not given here. CO(CH2)2(OCH2CH2)17CO = O=C(CCOCCOCCOCCOCCOCCOCCOCCOCCOCCOCCOCCOCCOCCOCCOCCOCCOCCC(=O)[*:2])[*:1]; CO(CH2CH2O)9CH2CH2CO = O=C(CCOCCOCCOCCOCCOCCOCCOCCOCCOCCC(=O)[*:2])[*:1]; X1 = O=C(OCCOCCOCCOCCOCCOCCOCCOCCOCCOCCOCCOCCOC(=O)[*:2])[*:1]; NMeF = CN[C@@H](Cc1ccccc1)C(=O)O; Ahp(2) = CCCCC[C@H](N)C(=O)O; NMeC = CN[C@@H](CS)C(=O)O; Ahp′ = not defined here

Molecular target: human c-Met protein (human, UniProt P08581 25-1390)
Sequence (P08581 25-1390): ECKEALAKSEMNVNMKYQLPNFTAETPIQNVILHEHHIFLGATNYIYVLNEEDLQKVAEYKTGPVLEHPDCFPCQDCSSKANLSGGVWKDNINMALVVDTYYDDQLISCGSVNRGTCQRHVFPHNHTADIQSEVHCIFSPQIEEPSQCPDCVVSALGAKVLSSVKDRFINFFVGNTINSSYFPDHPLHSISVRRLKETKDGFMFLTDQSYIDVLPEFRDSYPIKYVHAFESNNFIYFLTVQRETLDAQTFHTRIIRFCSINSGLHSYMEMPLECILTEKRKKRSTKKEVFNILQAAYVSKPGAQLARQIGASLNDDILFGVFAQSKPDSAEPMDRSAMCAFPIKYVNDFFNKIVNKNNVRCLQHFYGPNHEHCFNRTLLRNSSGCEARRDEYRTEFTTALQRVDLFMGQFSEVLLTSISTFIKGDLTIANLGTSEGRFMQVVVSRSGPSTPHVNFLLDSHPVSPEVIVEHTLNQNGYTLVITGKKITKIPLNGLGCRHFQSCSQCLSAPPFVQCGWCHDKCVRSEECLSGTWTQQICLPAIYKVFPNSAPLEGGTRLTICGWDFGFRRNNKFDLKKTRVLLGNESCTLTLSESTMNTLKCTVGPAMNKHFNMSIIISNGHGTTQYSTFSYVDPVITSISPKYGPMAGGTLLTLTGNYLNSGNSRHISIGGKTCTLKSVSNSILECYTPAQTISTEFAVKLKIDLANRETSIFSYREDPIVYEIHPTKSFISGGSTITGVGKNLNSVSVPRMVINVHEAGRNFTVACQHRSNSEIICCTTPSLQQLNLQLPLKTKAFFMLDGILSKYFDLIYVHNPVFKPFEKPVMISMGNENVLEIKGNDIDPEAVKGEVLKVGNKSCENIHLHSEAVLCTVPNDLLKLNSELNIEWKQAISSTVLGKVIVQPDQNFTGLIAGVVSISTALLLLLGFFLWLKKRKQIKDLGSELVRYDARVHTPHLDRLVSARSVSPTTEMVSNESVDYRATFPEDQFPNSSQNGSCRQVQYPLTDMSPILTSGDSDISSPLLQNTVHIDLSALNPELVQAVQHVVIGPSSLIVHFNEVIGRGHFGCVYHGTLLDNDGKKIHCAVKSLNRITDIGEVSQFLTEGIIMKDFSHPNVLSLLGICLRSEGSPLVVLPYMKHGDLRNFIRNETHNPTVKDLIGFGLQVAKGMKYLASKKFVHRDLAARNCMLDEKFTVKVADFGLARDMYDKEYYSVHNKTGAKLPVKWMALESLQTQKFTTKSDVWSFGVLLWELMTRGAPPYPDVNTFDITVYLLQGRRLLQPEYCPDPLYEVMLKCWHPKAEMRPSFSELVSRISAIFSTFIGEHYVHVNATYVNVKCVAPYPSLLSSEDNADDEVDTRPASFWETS
Assay: cell-based or functional assay
Conditions: not given

Molecule	C-Met Agonist Activity (C50; nM): phospho-c-Met AlphaLISA, A431 cells [nM]
GFs_c-Met-00014318-PEG9 dimer (peptide SEQ ID NO: 34, GFs_c-Met-00014336p; linker SEQ ID NO: 36) (thioether I:N-I:15 (inferred); also: homodimer: two cyclic peptides joined by linker G-K-cPEG9c-K-G, peptide C-terminus on linker) peptide: {CH2CO}-[NMeF]TAVS[NMeF]DED[Ahp(2)]PRWS[NMeC] GK[CO(CH2CH2O)9CH2CH2CO]KG	0.24
Peptide complex No. 48 in Table 4 (peptide SEQ ID NO: 33, GFs_c-Met-00014300p; linker SEQ ID NO: 36) (thioether I:N-I:15 (inferred); also: homodimer of two cyclic peptides joined by linker, peptide C-terminus on linker) peptide: {CH2CO}-[NMeF]TAVS[NMeF]DPD[Ahp(2)]PRWS[NMeC] GK[CO(CH2CH2O)9CH2CH2CO]KG	0.35

Now from value to molecule:

C-Met Agonist Activity (C50; nM): phospho-c-Met AlphaLISA, A431 cells [nM]	Molecule
0.33	Peptide complex No. 44 in Table 4 (peptide SEQ ID NO: 31, Gfs_c-Met-00014294p; linker SEQ ID NO: 36) (thioether I:N-I:15 (inferred); also: homodimer of two cyclic peptides joined by linker G-K-cPEG9c-K-G, peptide C-terminus on linker) peptide: {CH2CO}-[NMeF]TAVS[NMeF]DSD[Ahp(2)]PRWA[NMeC] GK[CO(CH2CH2O)9CH2CH2CO]KG
0.67	Peptide complex No. 46 in Table 4 (peptide SEQ ID NO: 32, GFs_c-Met-00014297p; linker SEQ ID NO: 36) (thioether I:N-I:15 (inferred); also: homodimer of two cyclic peptides joined by linker G-K-cPEG9c-K-G, peptide C-terminus on linker) peptide: {CH2CO}-[NMeF]TAVS[NMeF]DPD[Ahp(2)]PRWA[NMeC] GK[CO(CH2CH2O)9CH2CH2CO]KG
0.71	Peptide complex No. 45 in Table 4 (peptide SEQ ID NO: 32, GFs_c-Met-00014297p; linker SEQ ID NO: 38) (thioether I:N-I:15 (inferred); also: homodimer of two cyclic peptides joined by linker G-K-cPEG17c-K-G, peptide C-terminus on linker) peptide: {CH2CO}-[NMeF]TAVS[NMeF]DPD[Ahp(2)]PRWA[NMeC] GK[CO(CH2)2(OCH2CH2)17CO]KG
0.45	Peptide complex No. 43 in Table 4 (peptide SEQ ID NO: 31, Gfs_c-Met-00014294p; linker SEQ ID NO: 38) (thioether I:N-I:15 (inferred); also: homodimer of two cyclic peptides joined by linker G-K-cPEG17c-K-G, peptide C-terminus on linker) peptide: {CH2CO}-[NMeF]TAVS[NMeF]DSD[Ahp(2)]PRWA[NMeC] GK[CO(CH2)2(OCH2CH2)17CO]KG
0.32	Peptide complex No. 41 in Table 4 (peptide SEQ ID NO: 30, GFs_c-Met-00014304p; linker SEQ ID NO: 38) (thioether I:N-I:15 (inferred); also: homodimer of two cyclic peptides joined by linker G-K-cPEG17c-K-G, peptide C-terminus on linker) peptide: {CH2CO}-[NMeF]TAVS[NMeF]DSDRPRWS[NMeC] GK[CO(CH2)2(OCH2CH2)17CO]KG
0.27	GFs_c-Met-00014305-PEG17 dimer (peptide SEQ ID NO: 34, GFs_c-Met-00014336p; linker SEQ ID NO: 38) (thioether I:N-I:15 (inferred); also: homodimer: two cyclic peptides joined by linker G-K-cPEG17c-K-G, peptide C-terminus on linker) peptide: {CH2CO}-[NMeF]TAVS[NMeF]DED[Ahp(2)]PRWS[NMeC] GK[CO(CH2)2(OCH2CH2)17CO]KG
2.13	Peptide complex No. 40 in Table 4 (peptide SEQ ID NO: 29, GFs_c-Met-00014306p; linker SEQ ID NO: 36) (thioether I:N-I:15 (inferred); also: homodimer of two cyclic peptides joined by linker G-K-cPEG9c-K-G, peptide C-terminus on linker) peptide: {CH2CO}-[NMeF]TAVSLDSD[Ahp(2)]PRWS[NMeC] GK[CO(CH2CH2O)9CH2CH2CO]KG
0.33	Peptide complex No. 42 in Table 4 (peptide SEQ ID NO: 30, GFs_c-Met-00014304p; linker SEQ ID NO: 36) (thioether I:N-I:15 (inferred); also: homodimer of two cyclic peptides joined by linker G-K-cPEG9c-K-G, peptide C-terminus on linker) peptide: {CH2CO}-[NMeF]TAVS[NMeF]DSDRPRWS[NMeC] GK[CO(CH2CH2O)9CH2CH2CO]KG
0.5	Peptide complex No. 47 in Table 4 (peptide SEQ ID NO: 33, GFs_c-Met-00014300p; linker SEQ ID NO: 38) (thioether I:N-I:15 (inferred); also: homodimer of two cyclic peptides joined by linker G-K-cPEG17c-K-G, peptide C-terminus on linker) peptide: {CH2CO}-[NMeF]TAVS[NMeF]DPD[Ahp(2)]PRWS[NMeC] GK[CO(CH2)2(OCH2CH2)17CO]KG

Molecular target: T1, c-Met (Homo sapiens, UniProt P08581)
T1 construct: endogenous in cells; host or cells: A431 (human)
T1 sequence (P08581 25-1390): as above
Assay: Phospho-c-Met AlphaLISA assay (c-Met agonist activity) in A431 cells
Assay type: cell-based
Conditions: c-Met phosphorylation (Tyr1234/1235) in A431 cells, 15 minutes of stimulation; maximum signal induced by HGF = 100%
Procedure: To evaluate the activation potency (c-Met agonist activity) of c-Met of the peptide complex of the present invention, the phosphorylation of c-Met was verified. Human A431 cells were cultured in DMEM high glucose, GlutaMAX (registered trademark) Supplement, pyruvate (Thermo Fisher Scientific), containing 10% FBS (Gibco). After cells were detached using Accutase (Innovative cell technologies), they were seeded into a 96-well plate at 10000 cells per well and cultured overnight. The next day, for starvation, the culture medium was changed to DMEM high glucose, GlutaMAX (registered trademark) Supplement, pyruvate (Thermo Fisher Scientific), containing 0.1% BSA (Sigma-Aldrich), and the cells were cultured overnight. Then, the peptide complex synthesized in Example 3 or Recombinant Human HGF Protein (R&D systems) as a control was added, and after 15 minutes of stimulation, cells were lysed in a Lysis Buffer provided in the AlphaLISA (registered trademark) SureFire (registered trademark) Ultra™ Phospho-c-Met (Tyr1234/1235) kit (PerkinElmer). The assay was performed according to the kit protocol, and a SpectraMax (registered trademark) Paradigm (registered trademark) multimode microplate reader (Molecular Devices, LLC.) was used for signal detection. […] In the same manner, the C50 value was calculated by GraphPad Prism as the concentration of peptide showing 50% activity of the signal induced by HGF. […] Further, for a complex (GFs_c-Met-00014336-PEG13 dimer; complex no. 49 in Table 4) of a peptide (SEQ ID NO: 34) and a linker (SEQ ID NO: 37), a graph of c-Met agonist activity is shown in FIG. 1.

Molecule	C-Met Agonist Activity (2 or 1)
14 ({CH2CO}-[NMeF]VYVS[NMeF]DDD[Ahp′]PRWQ[NMeC]; thioether N-15 (inferred); not fully specified; reading uncertain; also: conjugated moiety via linker) [Peptide 14]	2 (those showing more than 50% activation were described as 2)
2 ({CH2CO}-[MeA]VYVS[NMeF]DDD[Ahp′]PRWS[NMeC]; thioether N-15 (inferred); not fully specified; reading uncertain; also: conjugated moiety via linker) [Peptide 2]	1 (those showing less than 50% activation as 1)
12 ({CH2CO}-[NMeF]VYVS[NMeF]DDD[Ahp′]PRWD[NMeC]; thioether N-15 (inferred); not fully specified; reading uncertain; also: conjugated moiety via linker) [Peptide 12]	2 (those showing more than 50% activation were described as 2)
10 ({CH2CO}-[NMeF]VYVS[NMeF]DDD[Ahp′]PSWS[NMeC]; thioether N-15 (inferred); not fully specified; reading uncertain; also: conjugated moiety via linker) [Peptide 10]	1 (those showing less than 50% activation as 1)
16 ({CH2CO}-[NMeF]VAVS[NMeF]DDD[Ahp′]PRWS[NMeC]; thioether N-15 (inferred); not fully specified; reading uncertain; also: conjugated moiety via linker) [Peptide 16]	1 (those showing less than 50% activation as 1)
6 ([NMeF]VDVS[NMeF]DDD[Ahp′]PRWS[NMeC]; not fully specified; reading uncertain) [Peptide 6]	2 (those showing more than 50% activation were described as 2)

Same assay, conditions: concentration of peptide showing 50% activity of the signal induced by HGF; A431 cells, 15 minutes of stimulation; read-out: C-Met Agonist Activity (C50; nM)

Molecule	EC50 [nM]
CCCCC[C@@H]1NC(=O)[C@H](CC(=O)O)NC(=O)[C@H](CCC(=O)O)NC(=O)[C@H](CC(=O)O)NC(=O)[C@H](Cc2ccccc2)N(C)C(=O)[C@H](CO)NC(=O)[C@H](C(C)C)NC(=O)[C@H](C)NC(=O)[C@H]([C@@H](C)O)NC(=O)[C@H](Cc2ccccc2)N(C)C(=O)CSC[C@@H](C(=O)NCC(=O)N[C@@H](CCCCNC(=O)OCCOCCOCCOCCOCCOCCOCCOCCOCCOCCOCCOCCOC(=O)NCCCC[C@H](NC(=O)CNC(=O)[C@@H]2CSCC(=O)N(C)[C@@H](Cc3ccccc3)C(=O)N[C@@H]([C@@H](C)O)C(=O)N[C@@H](C)C(=O)N[C@@H](C(C)C)C(=O)N[C@@H](CO)C(=O)N(C)[C@@H](Cc3ccccc3)C(=O)N[C@@H](CC(=O)O)C(=O)N[C@@H](CCC(=O)O)C(=O)N[C@@H](CC(=O)O)C(=O)N[C@@H](CCCCC)C(=O)N3CCC[C@H]3C(=O)N[C@@H](CCCNC(=N)N)C(=O)N[C@@H](Cc3c[nH]c4ccccc34)C(=O)N[C@@H](CO)C(=O)N2C)C(N)=O)C(N)=O)N(C)C(=O)[C@H](CO)NC(=O)[C@H](Cc2c[nH]c3ccccc23)NC(=O)[C@H](CCCNC(=N)N)NC(=O)[C@@H]2CCCN2C1=O [Peptide 49] (I: {CH2CO}-[NMeF]TAVS[NMeF]DED[Ahp(2)]PRWS[NMeC]GK-NH2 / II: {CH2CO}-[NMeF]TAVS[NMeF]DED[Ahp(2)]PRWS[NMeC]GK-NH2; linker I:17-II:17 via X1 (inferred); thioether I:N-I:15, II:N-II:15 (inferred); C-terminus assumed)	0.67
